Assay results published in patent publication US8809529B2, “Imidazo[1,2-α]pyrazine derivatives” (Promega Corporation, priority 2010, dated 2014).
Like-named read-outs stand apart in the source and are kept apart here.

What was measured:
HEK293 cells [1] = test: Toxicity of coelenterazines in HEK293 cells (CELLTITER-GLO); settings: 24 hrs after compound addition
[2] = Stability of coelenterazines in reporter reagent buffer (T90); settings: time for luminescent signal to decay by 10% at 22° C.; read with OgLuc variant IV lysate
HEK293 cells [3] = settings: human, 24 h
L27V02 enzyme = target: T1, L27V02 enzyme (Oplophorus gracilirostris, UniProt Q9GV45, A31E/A60N/A81I/F95D/I117V/K70R/L54V/L99Q/M102K/N193R/P142E/Q151K/Q38R/Q45L/V71I/Y165I); test: Luminescence of compounds with purified L27V02 enzyme; assay type: biochemical; settings: 20 μM compound, 36 pM L27V02, pH 7, 3 min
T1 construct: The N-terminus of the OgLuc variant L27V is methionine, valine and phenylalanine, i.e., MVF; made in house
Procedure: Compounds PBI-4525, PBI-4540 and PBI-4541 were screened for their ability to detect luminescence. […] The assay reagent was then mixed with 36 pM purified L27V02 enzyme (described in Example 25B), in DMEM without Phenol Red and 0.1% PRIONEX®. As a control, assay buffer with 20 μM PBI-3939 or PBI-4528 was used. Luminescence was measured as previously described 3 min after the assay reagent was added to the enzyme mixture.

[4] = Luminescence of OgLuc variants expressed in NIH3T3 cells; assay type: cell-based
Procedure: (§1) The PCR library in the pF4Ag-based non-fusion background was screened for additional variants with increased luminescence compared to 9B8 opt+K33N+170G (SEQ ID NOs: 68 and 69). Selected variants were then assayed in HEK293 and NIH3T3 cells. For each cell type, 15,000 cells were plated and grown overnight at 37° C. The next day, the cells were transfected as described in Example 25 with 10 ng pGL4.13 (Promega Corp.) as a transfection control and 100 ng of the OgLuc test DNA. The media was removed, and the cells were lysed with 100 μL of lysis buffer as described in Example 25 except the lysis buffer contained 100 mM MES pH 6.0 instead of HEPES, and luminescence measured using a GLOMAX® Luminometer.
(§2) Based on the above data, further combination variants were designed and generated (see Table 10) in the context of the pF4Ag-based non-fusion vector background without the 170G. The variants were analyzed in E. coli, HEK293 and NIH3T3 cells as described above and compared to 9B8 opt+K33N. The variants were also examined for luminescence with native coelenterazine.
(§3) The brightness of the variants expressed in HEK293 and NIH3T3 cells was measured as described previously. The luminescence of the variants was normalized to the luminescence generated by 9B8 opt (Table 27).
(§4) The variants 9B8 opt+K33N+T39T+K43R+Y68D (“V2”; SEQ ID NOs: 92 and 93), 9B8 opt+K33N+L27V+K43R+Y68D (SEQ ID NOs: 339 and 340), 9B8 opt+K33N+L27V+T39T+K43R+S66N (SEQ ID NOs: 341 and 342), and 9B8 opt+K33N+L27V+T39T+K43R+Y68D (“L27V”; SEQ ID NOs: 88 and 89) were subcloned into the Id-OgLuc-HT7 sandwich background as described above and assayed in HEK293 and NIH3T3 cells as described above. The luminescence generated by the sandwiched variants were compared to the luminescence generated by the […] sandwich (SEQ ID NOs: 59 and 60) (Table 38). The L27V sandwich (SEQ ID NOs: 90 and 91) and V2 sandwich (SEQ ID NOs: 94 and 95) had at least 1.3× fold-increase in luminescence in HEK293 and NIH3T3 cells.
(§5) The sandwich and non-sandwich versions of the variants V2, 9B8 opt+K33N+L27V+K43R+Y68D, 9B8 opt+K33N+L27V+T39T+K43R+S66N, and L27V were assayed in HEK293 and NIH3T3 cells as described in Example 37. The luminescence generated by the non-sandwiched variants was compared to the luminescence generated by the sandwiched variants (Table 39).

[5] = Luminescence of OgLuc variants expressed in HEK293 cells; assay type: cell-based, human
Procedure: as §1, §2, §3, §4, §5

[6] = Enzyme kinetics of OgLuc variants (Km, Vmax); assay type: biochemical, E. coli; settings: PBI-3939, average of three replicates
Procedure: Using methods known in the art, enzyme kinetic assays measuring luminescence were performed with the lysates of E. coli containing N and the IV variants 15C1, 9B8, 9F6, and 9A3. […] Two fold serial dilutions of PBI-3939 in the assay buffer described previously in Example 26 were assayed with the diluted lysates. […] Variants 9B8 and 9F6 had higher Km values compared to IV while Km values for the other variants were unchanged.
Luminescence was measured on a TECAN® INFINITE® F500 luminometer.
The enzyme kinetics values were determined for the OgLuc variants as described previously, except luminescence was measured using a GLOMAX® luminometer. Three replicates were used for each variant.

[7] = Brightness and relative specificity of 9B8 and 9B8 opt+K33N variants in E. coli lysates; assay type: biochemical
Procedure: Additional variants with improved relative specificity to novel PBI-3939 were generated as described previously by saturating amino acid positions 18, 68, 72, 75, and 90 in variant 9B8. […] Relative specificity was determined from the ratio of the luminescence of the variant with PBI-3939 to the luminescence of the variant with native coelenterazine, normalized to the ratio of corresponding luminescence of 9B8. Table 8 lists 9B8 variants (“Variant”) with at least 1.1× fold-increase in relative specificity for PBI-3939. […] 9B8 variants with amino acid substitutions K, D, F, G, Y, W, and H at position 18 had the highest fold improvement in relative specificity.
A new OgLuc library was created using 9B8opt+K33N as a starting template. The random library was created using DIVERSIFY® PCR Random Mutagenesis Kit (ClonTech; Catalog #630703). Condition 5 (as listed in the user manual) was used to generate additional variants, and the average mutation rate was calculated to be 2.6 mutations per gene by compiling sequence data from 83 randomly selected clones. This PCR library was cloned into the pF4Ag-based, non-fusion vector background described previously and the sandwich background, i.e., Id-OgLuc-HT7 (described in Example 45). Variants in the pF4Ag-base non-fusion vector background are designated with (NF). Variants in the sandwich vector background are designated with (F). In order to clone the PCR product into both vectors, an amino acid, i.e., a glycine, was appended to the variant sequence in pF4Ag, generating a new position 170 in the OgLuc variant (“170G”). The 170G is present in the sandwich construct, but in this case is considered part of the linker between OgLuc and HT7. For each library, 4,400 E. coli clones were assayed as described previously with the following exceptions. […] The assay buffer contained 100 mM MES pH 6.0 instead of HEPES, and 35 mM thiourea. The assay volumes were as follows: 10 μL cells, 40 μL lysis buffer, and 50 μL assay buffer.
as §2
E. coli lysates containing the variants were prepared and analyzed as described previously. Luminescence generated from the lysates was measured using the novel PBI-3939 and native coelenterazine as substrates. The luminescence of the variants was normalized to the luminescence generated by 9B8 opt (Table 12). The relative specificity of the variants for PBI-3939 and native coelenterazine was calculated by dividing the luminescence of the variants using PBI-3939 as a substrate with the luminescence of the variants using native coelenterazine as a substrate (Table 12).

[8] = assay type: physicochemical, E. coli; settings: 60° C., assay buffer 100 mM MES pH 6.0
Procedure: Aliquots were removed at different time-points and placed on dry ice to freeze the samples. […] Luminescence was measured on a GLOMAX® luminometer (Promega Corp.).
The thermal stability of the variants at 60° C. was examined as described above, except the assay buffer contained 100 mM MES pH 6.0 instead of HEPES.

[9] = assay type: biochemical, E. coli
Procedure: The signal stability of 15C1 with PBI-3945 and 9B8 with PBI-3889 was measured and compared to IV. E. coli containing plasmid DNA encoding 15C1, 9B8, or IV were grown and induced as described previously in 8-well replicates. Cells were lysed using a lysis buffer containing of 300 mM HEPES pH 8.0, 0.3× Passive Lysis Buffer (“PLB”; Promega Corp. Cat. No. E194A), 0.3 mg/mL lysozyme, and 0.003 U/μL RQ1 DNase. Lysates were diluted 1:1000 in lysis buffer and measured for luminescence using a TECAN® INFINITE® F500 luminometer. Measurements were taken immediately after the addition to 10 μL of diluted lysate sample of 50 μL of “Glo” 0.5% TERGITOL assay buffer (“0.5% TERGITOL”), which contained 150 mM KCl, 1 mM CDTA, 10 mM DTT, 100 mM thiourea, 0.5% TERGITOL® NP-9 (v/v), and 20 μM of either novel coelenterazines PBI-3945 or PBI 3889.
The signal stability of the variants was determined by re-reading the plate every 30 seconds for a length of time after the addition of the assay buffer to the sample. The signal half-life was determined from these measurements using methods known in the art. The average signal half-life was compared between the variants and IV. […] At t=10 min, luminescence for 15C1 with PBI-3945 and 9B8 with PBI-3889 were equivalent.
E. coli lysates containing the variants were prepared and analyzed as described previously except the assay buffer contained 0.25% TERGITOL® NP-9 (v/v), 100 mM MES pH 6.0, 1 mM CDTA, 150 mM KCl, 35 mM thiourea, 2 mM DTT, and 20 μM PBI-3939.

[10] = relative specificity for PBI-3939

## O=c1c(Cc2ccccc2)nc2c(Cc3ccccc3)[nH]c(-c3ccccc3)cn1-2 [Coelenterazine hh, bis-deoxycoelenterazine, reference compound]
HEK293 cells [1]
  Viability (normalized to vehicle (DMSO) control) (%): 87%
[2]
  Stability (pH 8) (T90 in hrs): 2.0 hrs

## Oc1ccc(Cc2nc3c(Cc4ccccc4)nc(-c4ccc(O)cc4)cn3c2O)cc1 [Native coelenterazine, coelenterazine, reference compound]
HEK293 cells [3]
  Viability (normalized to vehicle (DMSO) control) (%): 100%
other
  Stability (pH 8) (T90 in hrs): 1.7 hrs

## O=c1c(Cc2ccc(O)cc2)nc2c(Cc3ccccc3)[nH]c(-c3ccccc3)cn1-2 [PBI-3840, 8-benzyl-2-(4-hydroxybenzyl)-6-phenylimidazo[1,2-a]pyrazin-3(7H)-one]
HEK293 cells [3]
  Viability (normalized to vehicle (DMSO) control) (%): 60%

## O=c1c(Cc2cccs2)nc2c(Cc3ccccc3)[nH]c(-c3ccccc3)cn1-2 [PBI-3889, 8-benzyl-6-phenyl-2-(thiophen-2-ylmethyl)imidazo[1,2-a]pyrazin-3(7H)-one]
HEK293 cells [3]
  Viability (normalized to vehicle (DMSO) control) (%): 90%
other
  Stability (pH 8) (T90 in hrs): 2.9 hrs

## Cc1[nH]c(-c2ccccc2)cn2c(=O)c(Cc3ccc(O)cc3)nc1-2 [PBI-3896, 2-(4-hydroxybenzyl)-8-methyl-6-phenylimidazo[1,2-a]pyrazin-3(7H)-one]
other
  Stability (pH 8) (T90 in hrs): 2.8 hrs

## O=c1c(Cc2ccco2)nc2c(Cc3ccccc3)[nH]c(-c3ccc(O)cc3)cn1-2 [PBI-3945]
HEK293 cells [1]
  Viability (normalized to vehicle (DMSO) control) (%): 100%
[2]
  Stability (pH 8) (T90 in hrs): 3.3 hrs

## O=c1c(Cc2cccs2)nc2c(Cc3ccccc3)[nH]c(-c3ccc(O)cc3)cn1-2 [PBI-4002]
HEK293 cells [1]
  Viability (normalized to vehicle (DMSO) control) (%): 100%
[2]
  Stability (pH 8) (T90 in hrs): 3.5 hrs

## Cn1ccnc1Cc1nc2c(Cc3ccccc3)[nH]c(-c3ccccc3)cn-2c1=O [PBI-4525, 8-benzyl-2-((1-methyl-1H-imidazol-2-yl)methyl)-6-phenylimidazo[1,2-a]pyrazin-3(7H)-one]
L27V02 enzyme
  RLU: 20,655 RLU

## Cn1ccnc1CC1=NC2=C(Cc3ccccc3)NC(c3ccccc3)(c3ccc(O)cc3)CN2C1=O (stereo not shown) [PBI-4540, 8-benzyl-6-(4-hydroxyphenyl)-2-((1-methyl-1H-imidazol-2-yl)methyl)-6-phenylimidazo[1,2-a]pyrazin-3(7H)-one]
L27V02 enzyme
  RLU: 909 RLU

B1: L27V, K43R, Y68D: 9B8 opt+K33N+L27V+K43R+Y68D (protein)
chain: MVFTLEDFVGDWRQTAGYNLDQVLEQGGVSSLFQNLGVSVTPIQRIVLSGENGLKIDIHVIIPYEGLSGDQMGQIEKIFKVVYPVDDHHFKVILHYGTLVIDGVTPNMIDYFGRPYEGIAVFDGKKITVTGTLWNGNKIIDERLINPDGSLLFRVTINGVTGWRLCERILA
[4]
  Fold-Decrease in Luminescence in the Presence of Sandwich Background: NIH 3T3 cells: 22
[4]; luminescence, PBI-3939
  Fold over 9B8 opt + K33N: NIH3T3: 0.8
[4]; normalized to 9B8 opt
  Increase in Luminescence: NIH3T3: 1.5
[4]; [10]
  Fold over Native Coelenterazine: NIH3T3: 98
[5]
  Fold-Decrease in Luminescence in the Presence of Sandwich Background: HEK 293: 8
[5]; luminescence, PBI-3939
  Fold over 9B8 opt + K33N: HEK293: 0.9
[5]; normalized to 9B8 opt
  Increase in Luminescence: HEK293: 1.6
[5]; [10]
  Fold over Native Coelenterazine: HEK293: 101
[6]
  Km: 13.7 µM
  Vmax: 130,000,000 RLU/0.5 sec
[7]; bacterial lysates, PBI-3939 luminescence divided by native coelenterazine luminescence
  Fold over coelenterazine: 110
[7]; bacterial lysates, luminescence normalized to 9B8 opt
  Fold over 9B8: 1.3
[7]; in the three cell types examined
  fold-increase in relative specificity over 9B8 opt+K33N: 5 ×
[7]; luminescence, PBI-3939
  Fold over 9B8 opt + K33N: E. coli: 1.2
[7]; [10]
  Fold over Native Coelenterazine: E. coli: 98.3
[8]
  ½ life hours: 23.2 h
[9]
  signal half life: 2.03 h
